Test [1] has as its target chloroplastic glutamine synthetase GS2 of wheat (Triticum aestivum (endogenous in wheat seedlings)). Put plainly: native gel or EMSA; modified blue native electrophoresis (BNE), 4-13% polyacrylamide gradient gel, 4 °C; 1 h with cathode buffer with 0.02% Coomassie G250, then buffer without dye; ~100 ug soluble proteins from wheat seedling chloroplasts, leaves and roots; GS bands detected by in-gel transferase activity; mass calibrated against high-molecular-weight markers.

Test [2] deals with cytosolic glutamine synthetase GS1 holoenzyme of wheat (39 kDa subunit) (Triticum aestivum (endogenous in wheat seedlings)) (UniProt Q45NB7). Described as above.
For test [3], the target named is maize glutamine synthetase (maize (endogenous in maize leaf and roots)). Put plainly: native gel or EMSA; maize leaf and root extracts beside wheat (Supplementary Fig. S5); gel system not given. For orientation: In EMSA bound probe runs differently from free probe, usually more slowly.

The stoichiometry N is a count of units in the complex or per binding partner.

In turn, “chloroplastic glutamine synthetase GS2 of wheat (natural protein)” gave a stoichiometry N in test [1] of 6. In turn, “cytosolic glutamine synthetase GS1 holoenzyme of wheat (39 kDa subunit) (from UniProt Q45NB7 1-356) (natural protein)” registered a stoichiometry N in test [2] of 12.

“maize glutamine synthetase (natural protein)”: the stoichiometry N in test [3] is 10.

Values taken from publication PMC4623691.
